These results are taken from patent US20240158512A1 (TRUEBINDING, published 2024).

“And” between values parts separate entries of the source, which are not always exact repeats. Equal values may be shown once.

The target in assay [1] is T1, Galectin-3 (UniProt P17931 1-250, limits assumed).
T1 construct: Target of the anti-Gal3 antibody TB006; also called Gal3; GAL3
Kind of assay: BLI; after 4 C for 1 month.

The target of assay [2] is T1, Galectin-3. Kind of assay: BLI; after 40 C for 14 days. A general note: Biolayer interferometry detects binding as a change in optical thickness at a sensor tip.
Assay [3] deals with T1, Galectin-3. Kind of assay: BLI; after 25 C for 3 months.
Assay [4] has as its target T1, Galectin-3. Kind of assay: BLI; after 4 C for 12 months.
Assay [5] addresses T1, Galectin-3. Kind of assay: BLI; after 4 C for 18 months.
The target of assay [6] is T1, Galectin-3. Kind of assay: BLI; after agitation (shear stress).
Assay [7] deals with T1, Galectin-3. Kind of assay: BLI; after pipetting (shear stress).
In assay [8] the target is T1, Galectin-3. Kind of assay: BLI; after 3 freeze/thaws, 75% vol. of container.
For assay [9], the target named is T1, Galectin-3. Kind of assay: ELISA (Biological Activity); long-term stability 5 C, 1 month. In general terms: In an ELISA, binding on a coated surface is turned into a signal by an enzyme label.
Assay [10] deals with T1, Galectin-3. Kind of assay: ELISA (Biological Activity); accelerated stability 25 C/60% RH, 1 month.
In assay [11] the target is T1, Galectin-3. Kind of assay: ELISA blocking assay; TB006 diluted to 0.31 mg/mL in 0.9% NaCl, 25 C, 4 h; blocked partner not named.
For assay [12], the target named is T1, Galectin-3. Kind of assay: BLI (Binding Activity); long-term stability 5 C, 0 months; 5° C. long-term table, 0 months, Batch No. 095I0720.
Assay [13] addresses T1, Galectin-3. Kind of assay: ELISA blocking assay; TB006 diluted to 0.31 mg/mL in 0.9% NaCl, 25 C, 0 h; blocked partner not named; Bag #1, 0 h.
The target of assay [14] is T2, Galectin-3 (Gal3) (UniProt P17931 1-250, limits assumed).
T2 construct: Target of TB006
T2 sequence (P17931 whole entry): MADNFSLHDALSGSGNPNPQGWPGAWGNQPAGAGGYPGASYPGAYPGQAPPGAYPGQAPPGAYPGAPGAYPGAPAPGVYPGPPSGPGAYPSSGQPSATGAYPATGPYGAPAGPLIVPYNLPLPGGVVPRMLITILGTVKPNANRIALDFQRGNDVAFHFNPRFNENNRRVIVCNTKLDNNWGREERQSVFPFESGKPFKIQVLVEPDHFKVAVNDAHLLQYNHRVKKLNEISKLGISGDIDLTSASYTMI
Kind of assay: BLI; 50 mg/mL DS, time 0 control.

For assay [15], the target named is T2, Galectin-3 (Gal3). Kind of assay: BLI; 20 mg/mL DS after 3 freeze/thaws. Put shortly:
(§1)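 Binding to Galectin-3 was assessed by biolayer interferometry and given as the dissociation constant (Kd). Samples were tested at time zero or after stress, namely agitation (shear), repeated freeze-thaw cycles, or storage at set temperatures. The storage conditions included a 40° C stress test and cryogenic storage.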

The target of assay [16] is T2, Galectin-3 (Gal3). Kind of assay: BLI; 20 mg/mL DS after 5 freeze/thaws. Put shortly: as §1
Assay [17] deals with T2, Galectin-3 (Gal3). Kind of assay: BLI; 50 mg/mL DS after 3 freeze/thaws.
The target of assay [18] is T2, Galectin-3 (Gal3). Kind of assay: BLI; 50 mg/mL DS after 5 freeze/thaws.
In assay [19] the target is T2, Galectin-3 (Gal3). Kind of assay: BLI; 20 mg/mL DS after 40 C for 7 days.
Assay [20] deals with T2, Galectin-3 (Gal3). Kind of assay: BLI; 50 mg/mL DS after 40 C for 7 days.
The target in assay [21] is T2, Galectin-3 (Gal3). Kind of assay: BLI; 20 mg/mL DS after 4 C for 9 months. The procedure, abridged: as §1
Assay [22] concerns the target T2, Galectin-3 (Gal3). Kind of assay: BLI; 20 mg/mL DS after 40 C for 28 days.
Assay [23] has as its target T2, Galectin-3 (Gal3). Kind of assay: BLI; 50 mg/mL DS after 25 C for 14 days.
In assay [24] the target is T2, Galectin-3 (Gal3). Kind of assay: BLI; 50 mg/mL DS after 4 C for 3 months.
The target in assay [25] is T2, Galectin-3 (Gal3). Kind of assay: BLI; 50 mg/mL DS after 4 C for 9 months.
The target in assay [26] is T2, Galectin-3 (Gal3). Kind of assay: BLI; 20 mg/mL DS after 25 C for 3 months. The procedure, abridged:
as §1

The target in assay [27] is T2, Galectin-3 (Gal3). Kind of assay: BLI; 50 mg/mL DS after 4 C for 12 months.
In assay [28] the target is T2, Galectin-3 (Gal3). Kind of assay: BLI; 50 mg/mL DS after 40 C for 3 months.
Assay [29] addresses T2, Galectin-3 (Gal3). Kind of assay: BLI; 20 mg/mL DS after -80 C for 6 months. Put shortly:
as §1

The target in assay [30] is T2, Galectin-3 (Gal3). Kind of assay: BLI; 50 mg/mL DS after -80 C for 9 months.
Assay [31] deals with T2, Galectin-3 (Gal3). Kind of assay: BLI; 20 mg/mL DS after -80 C for 12 months. Put shortly:
as §1

Assay [32] has as its target T2, Galectin-3 (Gal3). Kind of assay: BLI; 20 mg/mL DS after agitation for 3 days. The procedure, abridged:
as §1

T1 sequence (P17931 whole entry): as above

B1: TB006 (antibody, human IgG4 S228P, kappa, V domains shown)
VH: QVQLVQSGAEVKKPGASVKVSCKASGYSFTNYYMHWVRQAPGQRLEWMGWIYPGSGNTNYNEKFQGRVTITADTSASTAYMELSSLRSEDTAVYYCSTAPGGFDVWGQGTTVTVSS
VL: DIVMTQTPLSLSVTPGQPASISCKSSKSLLHSDGITYLYWYLQKPGQSPQLLIYRMSNLASGVPDRFSGSGSGTDFTLKISRVEAEDVGVYYCAQMLEFPLTFGQGTKLEIKR
notes: Tested as formulated drug substance or drug product in 20 mM L-histidine, 5 mM methionine, 100 mM NaCl, 0.02% polysorbate 80, pH 5.8, or diluted in 0.9% saline; also called 4A11.H3L1; IMT006a
As for B1, the Kd in [1] amounted to 3.3 nM; in assay [2] it was 2.5 nM; in assay [3], 3.3 nM; in [4], 3.9 nM; in assay [5], 2.1 nM; in assay [6], 2.8 nM. Moreover, the Kd in [7] worked out at 2.8 nM; in assay [8], 2.6 nM; in assay [12], 3 nM. For the same molecule, the IC50 is 1.8 µg/mL in assay [9]; 1.8 µg/mL in assay [10]; 1.35 µg/mL and 1.41 µg/mL in assay [11]; 1.01 µg/mL in [13].

B2: TB006 (antibody, human IgG4 S228P, kappa, V domains shown)
VH: B1 VH
VL: B1 VL
notes: Full antibody tested as drug substance (DS) in 20 mM L-histidine, 5 mM methionine, 100 mM NaCl, 0.02% polysorbate-80, pH 5.8; also called 4A11.H3L1; IMT006a
Take B2: the dissociation constant (Kd) in [14] came to 2.6 nM; in assay [15], 3.3 nM; in assay [16], 3.1 nM; in [17], 3.9 nM; in assay [18] it was 2.6 nM; in assay [19] it was 2.9 nM. Further, the Kd in [20] stood at 2.7 nM; in assay [21] it was 1.9 nM; in assay [22] it was 3.8 nM; in assay [23], 3.1 nM; in [24] it was 2.3 nM; in [25] it was 2.8 nM. Also, the Kd stood at 3.4 nM in assay [26]; 3.7 nM in assay [27]; 3.1 nM in [28]; 2.7 nM in assay [29]; 2.8 nM in [30]; 2.7 nM in [31]. In addition, binding in [32] was put at a Kd of 3.4 nM.

Broadly, the Kd is a measure of binding affinity in units of concentration. A higher Kd goes with a looser complex. In general, IC50 refers to the midpoint of a concentration-inhibition curve.
